The numbers were not newly measured in publication PMC7312390, which cites them from elsewhere.

The target in one data set is His57 (UniProt position 57, VVTAAHCGVTT). The note with it: free (apo) chymotrypsin.
For a further data set, the target named is Cys25 (UniProt position 158, GSCGSCWAFSA). As to conditions: free cysteine protease (Cys/His ion pair in the apo state).

As to “chymotrypsin (not stated in the article (PDB 4CHA is bovine, Bos taurus, alpha-chymotrypsin))”, in the data set with His57, the pKa is listed as 7.5.

Take “papain (Carica papaya (not stated in the article; inferred))”: in the data set with Cys25, the pKa was 3.3.

By pKa is commonly meant the pH at which an ionisable group is half protonated.
